Key:
[1] = biological target: activated Cyt2Aa2 protein (chymotrypsin-activated) (Bacillus thuringiensis subsp. darmstadiensis); assay: SDS-PAGE ladder pattern of unheated sample with immunodetection
[2] = biological target: Cyt2Aa2 protoxin (Bacillus thuringiensis subsp. darmstadiensis); assay: SDS-PAGE of unheated sample with immunodetection

Substance	stoichiometry N [1]	stoichiometry N [2]
activated Cyt2Aa2 protein (chymotrypsin-activated) (natural protein)	> 10	
Cyt2Aa2 protoxin (natural protein)		2
